B1: GpH7-A5/GpH7-B3 variant G237_10E/GpL16-k0 (antibody, human IgG1, kappa)
heavy 1: not shown
heavy 2: not shown
light: DIVMTQSPLSLPVTPGEPASISCQASESLVHSNRNTYLHWYLQKPGQSPQLLIYKVSNRFSGVPDRFSGSGSGTDFTLKISRVEAEDVGVYYCSQNTHVPPTFGQGTKVEIERTVAAPSVFIFPPSDEQLKSGTASVVCLLNNFYPREAKVQWKVDNALQSGNSQESVTEQDSKDSTYSLSSTLTLSKADYEKHKVYACEVTHQGLSSPVTKSFNRGEC
notes: Heterodimerized IgG1; mutation in the GpH7-B3 H chain only; also called He Ab
B2: GpH7-A5/GpH7-B3 variant S267_19Q/GpL16-k0 (antibody, human IgG1, kappa)
heavy 1: not shown
heavy 2: not shown
light: B1 light
notes: as for B1
B3: GpH7-A5/GpH7-B3 variant H268_02A/GpL16-k0 (antibody, human IgG1, kappa)
heavy 1: not shown
heavy 2: not shown
light: B1 light
notes: as for B1
B4: GpH7-A5/GpH7-B3 variant G237_20W/GpL16-k0 (antibody, human IgG1, kappa)
heavy 1: not shown
heavy 2: not shown
light: B1 light
notes: as for B1
B5: GpH7-A5/GpH7-B3 variant L235_15Y/GpL16-k0 (antibody, human IgG1, kappa)
heavy 1: not shown
heavy 2: not shown
light: B1 light
notes: as for B1
B6: GpH7-A5/GpH7-B3 variant G237_19Q/GpL16-k0 (antibody, human IgG1, kappa)
heavy 1: not shown
heavy 2: not shown
light: B1 light
notes: as for B1
B7: GpH7-A5/GpH7-B3 variant S267_07I/GpL16-k0 (antibody, human IgG1, kappa)
heavy 1: not shown
heavy 2: not shown
light: B1 light
notes: as for B1
B8: GpH7-A5/GpH7-B3 variant H268_09D/GpL16-k0 (antibody, human IgG1, kappa)
heavy 1: not shown
heavy 2: not shown
light: B1 light
notes: as for B1
B9: GpH7-A5/GpH7-B3 variant P238_08L/GpL16-k0 (antibody, human IgG1, kappa)
heavy 1: not shown
heavy 2: not shown
light: B1 light
notes: as for B1
B10: GpH7-A5/GpH7-B3 variant S267_09D/GpL16-k0 (antibody, human IgG1, kappa)
heavy 1: not shown
heavy 2: not shown
light: B1 light
notes: as for B1
B11: GpH7-A5/GpH7-B3 variant P238_04F/GpL16-k0 (antibody, human IgG1, kappa)
heavy 1: not shown
heavy 2: not shown
light: B1 light
notes: as for B1
B12: GpH7-A5/GpH7-B3 variant V266_06M/GpL16-k0 (antibody, human IgG1, kappa)
heavy 1: not shown
heavy 2: not shown
light: B1 light
notes: as for B1
B13: GpH7-A5/GpH7-B3 variant V266_07I/GpL16-k0 (antibody, human IgG1, kappa)
heavy 1: not shown
heavy 2: not shown
light: B1 light
notes: as for B1
B14: GpH7-A5/GpH7-B3 variant H268_01G/GpL16-k0 (antibody, human IgG1, kappa)
heavy 1: not shown
heavy 2: not shown
light: B1 light
notes: as for B1
B15: GpH7-A5/GpH7-B3 variant S239_09D/GpL16-k0 (antibody, human IgG1, kappa)
heavy 1: not shown
heavy 2: not shown
light: B1 light
notes: as for B1
B16: GpH7-A5/GpH7-B3 variant S239_01G/GpL16-k0 (antibody, human IgG1, kappa)
heavy 1: not shown
heavy 2: not shown
light: B1 light
notes: as for B1
B17: GpH7-A5/GpH7-B3 variant S267_02A/GpL16-k0 (antibody, human IgG1, kappa)
heavy 1: not shown
heavy 2: not shown
light: B1 light
notes: as for B1
B18: GpH7-A5/GpH7-B3 variant S267_03V/GpL16-k0 (antibody, human IgG1, kappa)
heavy 1: not shown
heavy 2: not shown
light: B1 light
notes: as for B1
B19: GpH7-A5/GpH7-B3 variant P238_06M/GpL16-k0 (antibody, human IgG1, kappa)
heavy 1: not shown
heavy 2: not shown
light: B1 light
notes: as for B1
B20: GpH7-A5/GpH7-B3 variant V266_08L/GpL16-k0 (antibody, human IgG1, kappa)
heavy 1: not shown
heavy 2: not shown
light: B1 light
notes: as for B1
B21: GpH7-A5/GpH7-B3 variant P238_09D/GpL16-k0 (antibody, human IgG1, kappa)
heavy 1: not shown
heavy 2: not shown
light: B1 light
notes: as for B1
B22: GpH7-A5/GpH7-B3 variant G237_18N/GpL16-k0 (antibody, human IgG1, kappa)
heavy 1: not shown
heavy 2: not shown
light: B1 light
notes: as for B1
B23: GpH7-A5/GpH7-B3 variant S239_08L/GpL16-k0 (antibody, human IgG1, kappa)
heavy 1: not shown
heavy 2: not shown
light: B1 light
notes: as for B1
B24: GpH7-A5/GpH7-B3 variant V266_12R/GpL16-k0 (antibody, human IgG1, kappa)
heavy 1: not shown
heavy 2: not shown
light: B1 light
notes: as for B1
B25: GpH7-A5/GpH7-B3 variant S239_10E/GpL16-k0 (antibody, human IgG1, kappa)
heavy 1: not shown
heavy 2: not shown
light: B1 light
notes: as for B1
B26: GpH7-A5/GpH7-B3 variant S267_06M/GpL16-k0 (antibody, human IgG1, kappa)
heavy 1: not shown
heavy 2: not shown
light: B1 light
notes: as for B1
B27: GpH7-A5/GpH7-B3 variant L235_20W/GpL16-k0 (antibody, human IgG1, kappa)
heavy 1: not shown
heavy 2: not shown
light: B1 light
notes: as for B1
B28: GpH7-A5/GpH7-B3 variant P238_15Y/GpL16-k0 (antibody, human IgG1, kappa)
heavy 1: not shown
heavy 2: not shown
light: B1 light
notes: as for B1
B29: GpH7-A5/GpH7-B3 variant P238_10E/GpL16-k0 (antibody, human IgG1, kappa)
heavy 1: not shown
heavy 2: not shown
light: B1 light
notes: as for B1
B30: GpH7-A5/GpH7-B3 variant S267_10E/GpL16-k0 (antibody, human IgG1, kappa)
heavy 1: not shown
heavy 2: not shown
light: B1 light
notes: as for B1
B31: GpH7-A5/GpH7-B3 variant L235_09D/GpL16-k0 (antibody, human IgG1, kappa)
heavy 1: not shown
heavy 2: not shown
light: B1 light
notes: as for B1
B32: GpH7-A5/GpH7-B3 variant G237_15Y/GpL16-k0 (antibody, human IgG1, kappa)
heavy 1: not shown
heavy 2: not shown
light: B1 light
notes: as for B1
B33: GpH7-A5/GpH7-B3 variant L234_09D/GpL16-k0 (antibody, human IgG1, kappa)
heavy 1: not shown
heavy 2: not shown
light: B1 light
notes: as for B1

Columns and labels:
FcγRIa [1] = biological target: T1, FcγRIa (human, UniProt P12314 16-292); assay: SPR (Biacore); He/Con_1a divided by He/Con_2b (FcγRIa against FcγRIIb)
T1 construct: extracellular domain; Soluble extracellular domain with C-terminal His tag, used as analyte in Biacore; also called FcgRI; 1a; not shown: His tag attached to the C terminus

FcγRIIb = biological target: T2, FcγRIIb (human, UniProt P31994 43-217); assay: SPR (Biacore), antibody captured on antigen peptide, FcγR as analyte; relative to GpH7-A5/GpH7-B3/GpL16-k0 = 100
T2 construct: extracellular domain; Soluble extracellular domain with C-terminal His tag, used as analyte in Biacore; also called FcgRIIb; 2b; not shown: His tag attached to the C terminus
T2 sequence (looked up): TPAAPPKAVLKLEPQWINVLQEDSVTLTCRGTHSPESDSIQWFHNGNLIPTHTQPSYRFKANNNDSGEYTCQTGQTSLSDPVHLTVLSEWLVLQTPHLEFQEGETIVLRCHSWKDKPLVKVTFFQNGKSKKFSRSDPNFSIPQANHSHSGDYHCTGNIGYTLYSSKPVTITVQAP

FcγRIa [2] = biological target: T1, FcγRIa; assay: as above

T1 sequence (P12314 16-292): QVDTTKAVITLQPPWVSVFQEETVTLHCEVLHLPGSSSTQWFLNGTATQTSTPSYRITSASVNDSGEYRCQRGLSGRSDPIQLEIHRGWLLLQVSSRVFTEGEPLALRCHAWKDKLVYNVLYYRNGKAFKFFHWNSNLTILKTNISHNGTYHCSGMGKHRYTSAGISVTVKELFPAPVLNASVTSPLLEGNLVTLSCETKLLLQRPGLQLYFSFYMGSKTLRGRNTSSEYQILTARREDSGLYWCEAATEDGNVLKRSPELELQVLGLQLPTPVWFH

| Binder | Ia/IIb He_1a/2b (FcγRIa [1]) | He/Con_2b (FcγRIIb) | He/Con_1a (FcγRIa [2]) |
| --- | --- | --- | --- |
| B1 | 0.66 ratio | 114 % of control | 75.1 % of control |
| B2 | 0.47 ratio | 218 % of control | 102 % of control |
| B3 | 0.65 ratio | 167 % of control | 109 % of control |
| B4 | 0.41 ratio | 193 % of control | 78.4 % of control |
| B5 | 0.65 ratio | 149 % of control | 97.1 % of control |
| B6 | 0.77 ratio | 108 % of control | 82.8 % of control |
| B7 | 0.52 ratio | 192 % of control | 100 % of control |
| B8 | 0.46 ratio | 239 % of control | 110 % of control |
| B9 | 0.49 ratio | 204 % of control | 101 % of control |
| B10 | 0.35 ratio | 310 % of control | 110 % of control |
| B11 | 0.32 ratio | 312 % of control | 101 % of control |
| B12 | 0.4 ratio | 251 % of control | 99.7 % of control |
| B13 | 0.65 ratio | 152 % of control | 99.3 % of control |
| B14 | 0.75 ratio | 144 % of control | 107 % of control |
| B15 | 0.49 ratio | 206 % of control | 101 % of control |
| B16 | 0.7 ratio | 144 % of control | 101 % of control |
| B17 | 0.45 ratio | 243 % of control | 109 % of control |

| Binder | Ia/IIb He_1a/2b (FcγRIa [1]) | He/Con_2b (FcγRIIb) | He/Con_1a (FcγRIa [2]) |
| --- | --- | --- | --- |
| B18 | 0.55 ratio | 192 % of control | 106 % of control |
| B19 | 0.59 ratio | 174 % of control | 102 % of control |
| B20 | 0.42 ratio | 236 % of control | 98.1 % of control |
| B21 | 0.43 ratio | 221 % of control | 96 % of control |
| B22 | 0.46 ratio | 180 % of control | 82.5 % of control |
| B23 | 0.71 ratio | 140 % of control | 99.8 % of control |
| B24 | -55.6 ratio | -1.1 % of control | 59.2 % of control |
| B25 | 0.58 ratio | 181 % of control | 105 % of control |
| B26 | 0.51 ratio | 210 % of control | 106 % of control |
| B27 | 0.63 ratio | 147 % of control | 92.8 % of control |
| B28 | 0.46 ratio | 218 % of control | 101 % of control |
| B29 | 0.44 ratio | 232 % of control | 102 % of control |
| B30 | 0.28 ratio | 379 % of control | 106 % of control |
| B31 | 0.8 ratio | 106 % of control | 84.8 % of control |
| B32 | 0.52 ratio | 152 % of control | 79.6 % of control |
| B33 | 0.65 ratio | 150 % of control | 97.8 % of control |
